According to US20230144608:

T1: PANLVAPDP (SEQ ID NO: 6)
T1 chain: PANLVAPDP

T2: IVGRPRHQGV (SEQ ID NO: 7)
T2 chain: IVGRPRHQGV

T3: RSKYLATA (SEQ ID NO: 8)
T3 chain: RSKYLATA

T4: RPLALWRS (SEQ ID NO: 3)
T4 chain: RPLALWRS

T5: PVSLRSGS (SEQ ID NO: 1)
T5 chain: PVSLRSGS

T6: APAGLIVPYN (SEQ ID NO: 5)
T6 chain: APAGLIVPYN

T7: TQKPLGLS (SEQ ID NO: 4)
T7 chain: TQKPLGLS


What was measured:
PANLVAPDP (SEQ ID NO: 6) = biological target: T1, PANLVAPDP (SEQ ID NO: 6)
[1] = biological target: T2, IVGRPRHQGV (SEQ ID NO: 7)
RSKYLATA (SEQ ID NO: 8) = biological target: T3, RSKYLATA (SEQ ID NO: 8)
RPLALWRS (SEQ ID NO: 3) = biological target: T4, RPLALWRS (SEQ ID NO: 3)
PVSLRSGS (SEQ ID NO: 1) = biological target: T5, PVSLRSGS (SEQ ID NO: 1)
[2] = biological target: T6, APAGLIVPYN (SEQ ID NO: 5)
TQKPLGLS (SEQ ID NO: 4) = biological target: T7, TQKPLGLS (SEQ ID NO: 4)

Row | Protein | initial rate of cleavage by recombinant protease (PANLVAPDP (SEQ ID NO: 6)) | initial rate of cleavage by recombinant protease [1] | initial rate of cleavage by recombinant protease (RSKYLATA (SEQ ID NO: 8)) | initial rate of cleavage by recombinant protease (RPLALWRS (SEQ ID NO: 3)) | initial rate of cleavage by recombinant protease (PVSLRSGS (SEQ ID NO: 1)) | initial rate of cleavage by recombinant protease [2] | initial rate of cleavage by recombinant protease (TQKPLGLS (SEQ ID NO: 4))
1 | MMP-2 (protein) YNFFPRKPKWDKNQITYRIIGYTPDLDPETVDDAFARAFQVWSDVTPLRFSRIHDGEADIMINFGRWEHGDGYPFDGKDGLLAHAFAPGTGVGGDSHFDDDELWTLGEGQVVRVKYGNADGEYCKFPFLFNGKEYNSCTDTGRSDGFLWCSTTYNFEKDGKYGFCPHEALFTMGGNAEGQPCKFPFRFQGTSYDSCTTEGRTDGYRWCGTTEDYDRDKKYGFCPETAMSTVGGNSEGAPCVFPFTFLGNKYESCTSAGRSDGKMWCATTANYDDDRKWGFCPDQGYSLFLVAAHEFGHAMGLEHSQDPGALMAPIYTYTKNFRLSQDDIKGIQELYGASPDIDLGTGPTPTLGPVTPEICKQDIVFDGIAQIRGEIFFFKDRFIWRTVTPRDKPMGPLLVATFWPELPEKIDAVYEAPQEEKAVFFAGNEYWIYSASTLERGYPKPLTSLGLPPDVQRVDAAFNWSKNKKTYIFAGDKFWRYNEVKKKMDPGFPKLIADAWNAIPDNLDAVVDLQGGGHSYFFKGAYYLKLENQSLKSVKFGSIKSDWLGC | 31.2 µM/h | 0 µM/h | 0 µM/h | 1.1 µM/h | 1.9 µM/h | 29.6 µM/h | 11.8 µM/h
2 | MMP-1 (protein) FVLTEGNPRWEQTHLTYRIENYTPDLPRADVDHAIEKAFQLWSNVTPLTFTKVSEGQADIMISFVRGDHRDNSPFDGPGGNLAHAFQPGPGIGGDAHFDEDERWTNNFREYNLHRVAAHELGHSLGLSHSTDIGALMYPSYTFSGDVQLAQDDIDGIQAIYGRSQNPVQPIGPQTPKACDSKLTFDAITTIRGEVMFFKDRFYMRTNPFYPEVELNFISVFWPQLPNGLEAAYEFADRDEVRFFKGNKYWAVQGQNVLHGYPKDIYSSFGFPRTVKHIDAALSEENTGKTYFFVANKYWRYDEYKRSMDPGYPKMIAHDFPGIGHKVDAVFMKDGFFYFFHGTRQYKFDPKTKRILTLQKANSWFNCRKN | 2.7 µM/h | 0 µM/h | 0 µM/h | 0.1 µM/h | 0 µM/h | 0 µM/h | 0 µM/h
3 | MMP-7 (protein) YSLFPNSPKWTSKVVTYRIVSYTRDLPHITVDRLVSKALNMWGKEIPLHFRKVVWGTADIMIGFARGAHGDSYPFDGPGNTLAHAFAPGTGLGGDAHFDEDERWTDGSSLGINFLYAATHELGHSLGMGHSSDPNAVMYPTYGNGDPQNFKLSQDDIKGIQKLYGKRSNSRKK | 2.5 µM/h | 0 µM/h | 0 µM/h | 0.2 µM/h | 0.2 µM/h | 2.4 µM/h | 1.8 µM/h
